Data published in PMC2756588.

T1: Lsb1, P53281
T1 sequence (P53281 45-122, looked up): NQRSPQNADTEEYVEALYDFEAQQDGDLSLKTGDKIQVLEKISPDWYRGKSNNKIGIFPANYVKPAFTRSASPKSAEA

T2: Sla1-2, P32790
T2 sequence (P32790 60-140, looked up): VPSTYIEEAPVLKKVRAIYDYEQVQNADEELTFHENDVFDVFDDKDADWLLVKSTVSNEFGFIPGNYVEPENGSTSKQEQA

T3: Nbp2, Q12163
T3 sequence (Q12163 103-180, looked up): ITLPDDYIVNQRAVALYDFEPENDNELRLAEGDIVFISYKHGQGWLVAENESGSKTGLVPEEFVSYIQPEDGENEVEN

T4: Abp1, P15891
T4 sequence (P15891 535-592, looked up): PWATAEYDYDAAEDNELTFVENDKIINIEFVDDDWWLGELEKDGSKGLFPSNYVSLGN

T5: Pex13, P80667
T5 sequence (P80667 295-386, looked up): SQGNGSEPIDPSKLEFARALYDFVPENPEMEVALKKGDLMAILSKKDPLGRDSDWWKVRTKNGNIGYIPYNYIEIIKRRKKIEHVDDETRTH

T6: Bzz1-2, P38822
T6 sequence (P38822 568-633, looked up): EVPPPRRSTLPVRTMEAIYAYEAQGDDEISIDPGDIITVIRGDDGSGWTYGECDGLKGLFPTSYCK

T7: Lsb3, P43603
T7 sequence (P43603 385-451, looked up): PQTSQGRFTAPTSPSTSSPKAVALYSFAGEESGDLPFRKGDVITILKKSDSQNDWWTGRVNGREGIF

T8: Bbc1, P47068
T8 sequence (P47068 1-78, looked up): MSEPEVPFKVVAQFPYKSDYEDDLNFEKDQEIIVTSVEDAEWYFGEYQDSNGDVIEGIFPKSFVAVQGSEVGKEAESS

T9: Boi2, P39969
T9 sequence (P39969 32-116, looked up): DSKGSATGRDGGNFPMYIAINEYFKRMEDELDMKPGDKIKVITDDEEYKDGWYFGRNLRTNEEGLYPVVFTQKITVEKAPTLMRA

T10: Hse1, P38753
T10 sequence (P38753 208-285, looked up): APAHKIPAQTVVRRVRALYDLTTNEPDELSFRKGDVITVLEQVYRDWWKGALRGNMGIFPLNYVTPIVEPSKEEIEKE

T11: Boi1, P38041
T11 sequence (P38041 1-86, looked up): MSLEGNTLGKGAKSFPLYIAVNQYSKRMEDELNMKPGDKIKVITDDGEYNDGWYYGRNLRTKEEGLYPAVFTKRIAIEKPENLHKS

T12: Bzz1-1, P38822
T12 sequence (P38822 478-572, looked up): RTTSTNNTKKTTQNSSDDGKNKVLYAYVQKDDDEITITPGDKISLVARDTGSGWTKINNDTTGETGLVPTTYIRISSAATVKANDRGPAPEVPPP

T13: Cyk3, Q07533
T13 sequence (Q07533 1-83, looked up): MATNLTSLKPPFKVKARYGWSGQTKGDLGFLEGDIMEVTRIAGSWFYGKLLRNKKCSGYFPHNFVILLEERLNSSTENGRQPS

T14: Pin3, Q06449
T14 sequence (Q06449 53-122, looked up): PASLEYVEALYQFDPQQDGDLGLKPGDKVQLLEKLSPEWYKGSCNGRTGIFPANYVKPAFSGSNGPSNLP

T15: Fus1, P11710
T15 sequence (P11710 432-512, looked up): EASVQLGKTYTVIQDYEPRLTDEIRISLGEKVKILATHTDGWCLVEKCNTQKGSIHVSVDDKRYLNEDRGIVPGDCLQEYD

T16: Bud14, P27637
T16 sequence (P27637 247-328, looked up): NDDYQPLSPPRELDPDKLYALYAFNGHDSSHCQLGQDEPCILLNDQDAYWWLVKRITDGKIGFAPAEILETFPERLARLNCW

T17: Cdc25, P04821
T17 sequence (P04821 50-136, looked up): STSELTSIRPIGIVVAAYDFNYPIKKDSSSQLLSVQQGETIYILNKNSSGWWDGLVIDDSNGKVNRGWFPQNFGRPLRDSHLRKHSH

T18: Sla1-3, P32790
T18 sequence (P32790 344-424, looked up): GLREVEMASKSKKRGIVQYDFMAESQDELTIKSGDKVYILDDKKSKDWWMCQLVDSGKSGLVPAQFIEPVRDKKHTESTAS

T19: Myo5, Q04439
T19 sequence (Q04439 1072-1160, looked up): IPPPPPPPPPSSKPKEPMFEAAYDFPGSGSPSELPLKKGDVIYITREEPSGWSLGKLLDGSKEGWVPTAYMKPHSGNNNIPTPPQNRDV

T20: Hof1, Q05080
T20 sequence (Q05080 590-669, looked up): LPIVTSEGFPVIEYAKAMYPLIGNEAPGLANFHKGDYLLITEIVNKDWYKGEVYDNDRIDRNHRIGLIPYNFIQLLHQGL

T21: Lsb4, P32793
T21 sequence (P32793 402-468, looked up): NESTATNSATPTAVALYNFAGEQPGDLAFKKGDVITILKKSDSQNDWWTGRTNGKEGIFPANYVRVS

B1: unnamed (peptide)
chain: NHSRSLFSLPGNQQS
B2: unnamed (peptide)
chain: PLRRTVMSLPGNHDI
B3: unnamed (peptide)
chain: NPNRRAPRRPLSTQH
B4: unnamed (peptide)
chain: NFLRLLIGLPSQNEL
B5: unnamed (peptide)
chain: NNQRRKPLLLNIGDH
B6: unnamed (peptide)
chain: ALFRLSFFFPLDPAY

What follows are binders tested against T1, Lsb1, P53281 (assay: SPOT array). Conditions: median of control spots 388.

Row | SPOT intensity | Binder
1 | 46 | B1
2 | 75 | B2
3 | 52 | B3
4 | 2 | B4
5 | 0 | B5
6 | 49 | B6

These binders were tested against T2, Sla1-2, P32790 (assay: SPOT array). Conditions: median of control spots 712.

Row | SPOT intensity | Binder
7 | 1 | B1
8 | 3 | B2
9 | 4 | B3
10 | 0 | B4
11 | 0 | B5
12 | 4 | B6

Each binder was assayed against Sho1, P40073 (assay: SPOT array). Conditions: median of control spots 1148.
Sho1, P40073, sequence (P40073 287-367): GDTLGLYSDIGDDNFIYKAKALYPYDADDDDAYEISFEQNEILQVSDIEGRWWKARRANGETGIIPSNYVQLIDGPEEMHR

Row | SPOT intensity | Binder
13 | 141 | B1
14 | 12 | B2
15 | 267 | B3
16 | 93 | B4
17 | 79 | B5
18 | 168 | B6

Each binder was assayed against Bem1-1, P29366 (assay: SPOT array). Conditions: median of control spots 4282.
Bem1-1, P29366, sequence (P29366 55-141): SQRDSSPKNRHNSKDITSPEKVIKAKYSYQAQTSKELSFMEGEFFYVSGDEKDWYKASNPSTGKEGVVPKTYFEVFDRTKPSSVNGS

Row | SPOT intensity | Binder
19 | 3 | B1
20 | 1 | B2
21 | 3 | B3
22 | 1 | B4
23 | 0 | B5
24 | 0 | B6

These binders were tested against T3, Nbp2, Q12163 (assay: SPOT array). Conditions: median of control spots 357.

Row | SPOT intensity | Binder
25 | 77 | B1
26 | 18 | B2
27 | 626 | B3
28 | 84 | B4
29 | 42 | B5
30 | 283 | B6

These binders were tested against T4, Abp1, P15891 (assay: SPOT array). Conditions: median of control spots 935.

Row | SPOT intensity | Binder
31 | 53 | B1
32 | 24 | B2
33 | 151 | B3
34 | 55 | B4
35 | 56 | B5
36 | 142 | B6

The binders below were run against T5, Pex13, P80667 (assay: SPOT array). Conditions: median of control spots 1341.

Row | SPOT intensity | Binder
37 | 36 | B1
38 | 31 | B2
39 | 27 | B3
40 | 47 | B4
41 | 0 | B5
42 | 93 | B6

The binders below were run against T6, Bzz1-2, P38822 (assay: SPOT array). Conditions: median of control spots 4538.

Row | SPOT intensity | Binder
43 | 19 | B1
44 | 1 | B2
45 | 56 | B3
46 | 0 | B4
47 | 5 | B5
48 | 31 | B6

These binders were tested against T7, Lsb3, P43603 (assay: SPOT array). Conditions: median of control spots 406.

Row | SPOT intensity | Binder
49 | 0 | B1
50 | 0 | B2
51 | 2 | B3
52 | 0 | B4
53 | 0 | B5
54 | 16 | B6

Each binder was assayed against T8, Bbc1, P47068 (assay: SPOT array). Conditions: median of control spots 796.

Row | SPOT intensity | Binder
55 | 35 | B1
56 | 0 | B2
57 | 294 | B3
58 | 156 | B4
59 | 11 | B5
60 | 218 | B6

The binders below were run against Rvs167, P39743 (assay: SPOT array). Conditions: median of control spots 2707.
Rvs167, P39743, sequence (P39743 419-482): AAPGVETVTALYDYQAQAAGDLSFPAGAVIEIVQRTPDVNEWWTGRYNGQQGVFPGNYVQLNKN

Row | SPOT intensity | Binder
61 | 0 | B1
62 | 0 | B2
63 | 0 | B3
64 | 0 | B4
65 | 0 | B5
66 | 8 | B6

These binders were tested against T9, Boi2, P39969 (assay: SPOT array). Conditions: median of control spots 1161.

Row | SPOT intensity | Binder
67 | 2 | B1
68 | 0 | B2
69 | 0 | B3
70 | 6 | B4
71 | 1 | B5
72 | 17 | B6

These binders were tested against T10, Hse1, P38753 (assay: SPOT array). Conditions: median of control spots 1727.

Row | SPOT intensity | Binder
73 | 114 | B1
74 | 1 | B2
75 | 113 | B3
76 | 10 | B4
77 | 50 | B5
78 | 116 | B6

These binders were tested against T11, Boi1, P38041 (assay: SPOT array). Conditions: median of control spots 1162.

Row | SPOT intensity | Binder
79 | 7 | B1
80 | 0 | B2
81 | 28 | B3
82 | 122 | B4
83 | 5 | B5
84 | 192 | B6

What follows are binders tested against T12, Bzz1-1, P38822 (assay: SPOT array). Conditions: median of control spots 4446.

Row | SPOT intensity | Binder
85 | 2 | B1
86 | 1 | B2
87 | 0 | B3
88 | 2 | B4
89 | 0 | B5
90 | 0 | B6

What follows are binders tested against T13, Cyk3, Q07533 (assay: SPOT array). Conditions: median of control spots 1451.

Row | SPOT intensity | Binder
91 | 0 | B1
92 | 0 | B2
93 | 3 | B3
94 | 9 | B4
95 | 1 | B5
96 | 13 | B6

Each binder was assayed against Myo3, P36006 (assay: SPOT array). Conditions: median of control spots 468.

Row | SPOT intensity | Binder
97 | 13 | B1
98 | 23 | B2
99 | 46 | B3
100 | 10 | B4
101 | 0 | B5
102 | 44 | B6

Each binder was assayed against Bem1-2, P29366 (assay: SPOT array). Conditions: median of control spots 4347.
Bem1-2, P29366, sequence (P29366 139-227): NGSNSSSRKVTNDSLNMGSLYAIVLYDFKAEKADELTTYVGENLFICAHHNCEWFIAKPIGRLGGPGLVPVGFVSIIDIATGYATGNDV

Row | SPOT intensity | Binder
103 | 353 | B1
104 | 6 | B2
105 | 476 | B3
106 | 0 | B4
107 | 25 | B5
108 | 27 | B6

The binders below were run against T14, Pin3, Q06449 (assay: SPOT array). Conditions: median of control spots 2171.

Row | SPOT intensity | Binder
109 | 16 | B1
110 | 72 | B2
111 | 4 | B3
112 | 15 | B4
113 | 0 | B5
114 | 39 | B6

These binders were tested against T15, Fus1, P11710 (assay: SPOT array). Conditions: median of control spots 1200.

Row | SPOT intensity | Binder
115 | 653 | B1
116 | 1 | B2
117 | 59 | B3
118 | 243 | B4
119 | 28 | B5
120 | 628 | B6

The binders below were run against T16, Bud14, P27637 (assay: SPOT array). Conditions: median of control spots 956.

Row | SPOT intensity | Binder
121 | 7 | B1
122 | 2 | B2
123 | 17 | B3
124 | 22 | B4
125 | 17 | B5
126 | 12 | B6

These binders were tested against T17, Cdc25, P04821 (assay: SPOT array). Conditions: median of control spots 969.

Row | SPOT intensity | Binder
127 | 333 | B1
128 | 16 | B2
129 | 221 | B3
130 | 354 | B4
131 | 216 | B5
132 | 359 | B6

The binders below were run against T18, Sla1-3, P32790 (assay: SPOT array). Conditions: median of control spots 5475.

Row | SPOT intensity | Binder
133 | 124 | B1
134 | 0 | B2
135 | 607 | B3
136 | 0 | B4
137 | 138 | B5
138 | 54 | B6

These binders were tested against T19, Myo5, Q04439 (assay: SPOT array). Conditions: median of control spots 471.

Row | SPOT intensity | Binder
139 | 1 | B1
140 | 12 | B2
141 | 0 | B3
142 | 0 | B4
143 | 0 | B5
144 | 17 | B6

The binders below were run against T20, Hof1, Q05080 (assay: SPOT array). Conditions: median of control spots 4086.

Row | SPOT intensity | Binder
145 | 364 | B1
146 | 0 | B2
147 | 70 | B3
148 | 3 | B4
149 | 18 | B5
150 | 33 | B6

The binders below were run against GST (assay: SPOT array). Conditions: median of control spots 978.

Row | SPOT intensity | Binder
151 | 2 | B1
152 | 0 | B2
153 | 0 | B3
154 | 0 | B4
155 | 0 | B5
156 | 1 | B6

Each binder was assayed against T21, Lsb4, P32793 (assay: SPOT array). Conditions: median of control spots 397.

Row | SPOT intensity | Binder
157 | 0 | B1
158 | 0 | B2
159 | 18 | B3
160 | 0 | B4
161 | 0 | B5
162 | 21 | B6
